Patent publication US20240117018A1

Columns and labels:
Test in all cases: cell-based or functional assay
[1] = target: HIV-1 Env of pseudovirus 0260.v5.c36 (HIV-1)
[2] = target: HIV-1 Env of pseudovirus 1012_11_TC21_3257 (HIV-1)
[3] = target: HIV-1 Env of pseudovirus 1056_10_TA11_1826 (HIV-1)
[4] = target: HIV-1 Env of pseudovirus 1394C9G1(Rev-) (HIV-1)
[5] = target: HIV-1 Env of pseudovirus 246F C1G (HIV-1)
[6] = target: HIV-1 Env of pseudovirus 6240_08_TA5_4622 (HIV-1)
[7] = target: HIV-1 Env of pseudovirus 6244_13_B5_4576 (HIV-1)
[8] = target: HIV-1 Env of pseudovirus 7030102001E5(Rev-) (HIV-1)
[9] = target: HIV-1 Env of pseudovirus AC10.0.29 (HIV-1)
[10] = target: HIV-1 Env of pseudovirus C2101.c01 (HIV-1)
[11] = target: HIV-1 Env of pseudovirus CAP45.2.00.G3 (HIV-1)
[12] = target: HIV-1 Env of pseudovirus CNE17 (HIV-1)
[13] = target: HIV-1 Env of pseudovirus CNE30 (HIV-1)
[14] = target: HIV-1 Env of pseudovirus CNE52 (HIV-1)
[15] = target: HIV-1 Env of pseudovirus CNE53 (HIV-1)
[16] = target: HIV-1 Env of pseudovirus CNE58 (HIV-1)
[17] = target: HIV-1 Env of pseudovirus CNE8 (HIV-1)
[18] = target: HIV-1 Env of pseudovirus Ce0393_C3 (HIV-1)
[19] = target: HIV-1 Env of pseudovirus Ce1172_H1 (HIV-1)
[20] = target: HIV-1 Env of pseudovirus Ce2010_F5 (HIV-1)
[21] = target: HIV-1 Env of pseudovirus Ce2060_G9 (HIV-1)
[22] = target: HIV-1 Env of pseudovirus Ce704809221_1B3 (HIV-1)
[23] = target: HIV-1 Env of pseudovirus Du172.17 (HIV-1)
[24] = target: HIV-1 Env of pseudovirus Du422.1 (HIV-1)
[25] = target: HIV-1 Env of pseudovirus HIV-16055-2.3 (HIV-1)
[26] = target: HIV-1 Env of pseudovirus Q461.e2 (HIV-1)
[27] = target: HIV-1 Env of pseudovirus Q842.d12 (HIV-1)
[28] = target: HIV-1 Env of pseudovirus RHPA4259.7 (HIV-1)
[29] = target: HIV-1 Env of pseudovirus T250-4 (HIV-1)
[30] = target: HIV-1 Env of pseudovirus TRJO4551.58 (HIV-1)
[31] = target: HIV-1 Env of pseudovirus TRO.11 (HIV-1)
[32] = target: HIV-1 Env of pseudovirus ZM109F.PB4 (HIV-1)
[33] = target: HIV-1 Env of pseudovirus ZM214M.PL15 (HIV-1)
[34] = target: HIV-1 Env of pseudovirus ZM249M.PL1 (HIV-1)
[35] = target: HIV-1 Env of pseudovirus ZM53M.PB12 (HIV-1)

## PGDM1400 (antibody)
[1]
  neutralization IC50: 0.033 µg/mL
  neutralization IC80: 0.175 µg/mL
[2]
  neutralization IC50: 0.049 µg/mL
  neutralization IC80: 0.23 µg/mL
[3]
  neutralization IC50: 3.26 µg/mL
  neutralization IC80: 11.8 µg/mL
[4]
  neutralization IC50: < 0.001 µg/mL
  neutralization IC80: 0.004 µg/mL
[5]
  neutralization IC50: > 50 µg/mL
  neutralization IC80: > 50 µg/mL
[6]
  neutralization IC50: > 50 µg/mL
  neutralization IC80: > 50 µg/mL
[7]
  neutralization IC50: > 50 µg/mL
  neutralization IC80: > 50 µg/mL
[8]
  neutralization IC50: > 50 µg/mL
  neutralization IC80: > 50 µg/mL
[9]
  neutralization IC50: 0.105 µg/mL
  neutralization IC80: 0.869 µg/mL
[10]
  IC50 (Titer in TZM.bl cells): 0.006 µg/mL
  IC80 (Titer in TZM.bl cells): 0.021 µg/mL
[11]
  neutralization IC50: < 0.001 µg/mL
  neutralization IC80: 0.002 µg/mL
[12]
  neutralization IC50: 0.007 µg/mL
  neutralization IC80: 0.021 µg/mL
[13]
  neutralization IC50: > 50 µg/mL
  neutralization IC80: > 50 µg/mL
[14]
  neutralization IC50: 1.15 µg/mL
  neutralization IC80: 9.97 µg/mL
[15]
  neutralization IC50: 0.077 µg/mL
  neutralization IC80: 0.246 µg/mL
[16]
  neutralization IC50: 0.004 µg/mL
  neutralization IC80: 0.014 µg/mL
[17]
  IC50 (Titer in TZM.bl cells): < 0.001 µg/mL
  IC80 (Titer in TZM.bl cells): 0.01 µg/mL
[18]
  neutralization IC50: 0.015 µg/mL
  neutralization IC80: 0.044 µg/mL
[19]
  neutralization IC50: 0.021 µg/mL
  neutralization IC80: 0.06 µg/mL
[20]
  neutralization IC50: > 50 µg/mL
  neutralization IC80: > 50 µg/mL
[21]
  neutralization IC50: 0.001 µg/mL
  neutralization IC80: 0.007 µg/mL
[22]
  neutralization IC50: 0.28 µg/mL
  neutralization IC80: 1.1 µg/mL
[23]
  neutralization IC50: 5.18 µg/mL
  neutralization IC80: 22 µg/mL
[24]
  neutralization IC50: 0.694 µg/mL
  neutralization IC80: > 50 µg/mL
[25]
  neutralization IC50: < 0.001 µg/mL
  neutralization IC80: 0.003 µg/mL
[26]
  neutralization IC50: 0.089 µg/mL
  neutralization IC80: 0.572 µg/mL
[27]
  neutralization IC50: < 0.001 µg/mL
  neutralization IC80: 0.002 µg/mL
[28]
  neutralization IC50: 0.447 µg/mL
  neutralization IC80: 2.19 µg/mL
[29]
  neutralization IC50: < 0.001 µg/mL
  neutralization IC80: < 0.001 µg/mL
[30]
  neutralization IC50: > 50 µg/mL
  neutralization IC80: > 50 µg/mL
[31]
  neutralization IC50: 0.283 µg/mL
  neutralization IC80: 1.38 µg/mL
[32]
  neutralization IC50: 0.057 µg/mL
  neutralization IC80: 0.382 µg/mL
[33]
  neutralization IC50: > 50 µg/mL
  neutralization IC80: > 50 µg/mL
[34]
  neutralization IC50: 0.016 µg/mL
  neutralization IC80: 0.701 µg/mL
[35]
  neutralization IC50: 0.002 µg/mL
  neutralization IC80: 0.011 µg/mL

## PGT128 (antibody)
[1]
  neutralization IC50: 0.058 µg/mL
  neutralization IC80: 0.162 µg/mL
[2]
  neutralization IC50: 0.011 µg/mL
  neutralization IC80: 0.033 µg/mL
[3]
  neutralization IC50: < 0.001 µg/mL
  neutralization IC80: 0.008 µg/mL
[4]
  neutralization IC50: 0.011 µg/mL
  neutralization IC80: 0.034 µg/mL
[5]
  neutralization IC50: 0.005 µg/mL
  neutralization IC80: 0.014 µg/mL
[6]
  neutralization IC50: 0.019 µg/mL
  neutralization IC80: 0.055 µg/mL
[7]
  neutralization IC50: 0.02 µg/mL
  neutralization IC80: 0.076 µg/mL
[8]
  neutralization IC50: 0.007 µg/mL
  neutralization IC80: 0.022 µg/mL
[9]
  neutralization IC50: 0.008 µg/mL
  neutralization IC80: 0.018 µg/mL
[11]
  neutralization IC50: > 50 µg/mL
  neutralization IC80: > 50 µg/mL
[12]
  neutralization IC50: 0.432 µg/mL
  neutralization IC80: 1.99 µg/mL
[13]
  neutralization IC50: 2.06 µg/mL
  neutralization IC80: 12.6 µg/mL
[14]
  neutralization IC50: > 50 µg/mL
  neutralization IC80: > 50 µg/mL
[15]
  neutralization IC50: 0.01 µg/mL
  neutralization IC80: 0.049 µg/mL
[16]
  neutralization IC50: 13.8 µg/mL
  neutralization IC80: > 50 µg/mL
[17]
  IC50 (Titer in TZM.bl cells): 0.019 µg/mL
  IC80 (Titer in TZM.bl cells): 0.052 µg/mL
[18]
  neutralization IC50: > 50 µg/mL
  neutralization IC80: > 50 µg/mL
[19]
  neutralization IC50: 0.013 µg/mL
  neutralization IC80: 0.038 µg/mL
[20]
  neutralization IC50: > 50 µg/mL
  neutralization IC80: > 50 µg/mL
[21]
  neutralization IC50: > 50 µg/mL
  neutralization IC80: > 50 µg/mL
[22]
  neutralization IC50: 0.026 µg/mL
  neutralization IC80: 0.072 µg/mL
[23]
  neutralization IC50: 0.028 µg/mL
  neutralization IC80: 0.08 µg/mL
[24]
  neutralization IC50: 0.039 µg/mL
  neutralization IC80: 0.113 µg/mL
[25]
  neutralization IC50: > 50 µg/mL
  neutralization IC80: > 50 µg/mL
[26]
  neutralization IC50: > 50 µg/mL
  neutralization IC80: > 50 µg/mL
[27]
  neutralization IC50: 0.008 µg/mL
  neutralization IC80: 0.102 µg/mL
[28]
  neutralization IC50: 0.026 µg/mL
  neutralization IC80: 0.109 µg/mL
[29]
  neutralization IC50: < 0.001 µg/mL
  neutralization IC80: 0.007 µg/mL
[30]
  neutralization IC50: 0.018 µg/mL
  neutralization IC80: 0.041 µg/mL
[31]
  neutralization IC50: 0.019 µg/mL
  neutralization IC80: 0.045 µg/mL
[32]
  neutralization IC50: > 50 µg/mL
  neutralization IC80: > 50 µg/mL
[33]
  neutralization IC50: 1.5 µg/mL
  neutralization IC80: 29.4 µg/mL
[34]
  neutralization IC50: 39.7 µg/mL
  neutralization IC80: > 50 µg/mL
[35]
  neutralization IC50: > 50 µg/mL
  neutralization IC80: > 50 µg/mL
